# US20060134087A1, “ITI-D1 Kunitz domain mutants as hNE inhibitors” (Dyax Corp., published 2006)
# Changes are numbered by the printed parent chain.
# B1: MA-BITI display phage (designed binder)
# chain: RPDFCQLGYSAGPCMGMTSRYFYNGTSMACETFQYGGCMGNGNNFVTEKDCLQTCRGA
# B2: MA-BITI-E7-1222 display phage (designed binder)
# chain: B1 chain with A11T, M15V, G16A, T18F, S19P
# B3: MA-BITI-E7-141 display phage (designed binder)
# chain: B1 chain with M15V, G16A, T18F, S19P, E31Q, Q34V
# B4: AMINO1 display phage (designed binder)
# chain: B1 chain with R1K, P2E, M15V, G16A, T18F, S19P
# B5: AMINO2 display phage (designed binder)
# chain: B1 chain with R1K, F4S, M15V, G16A, T18F, S19P
# B6: MUTQE display phage (designed binder)
# chain: B1 chain with M15V, G16A, T18F, S19P, Q34V
# B7: MUTP1 display phage (designed binder)
# chain: B1 chain with M15I, T18F
# B8: MUT1619 display phage (designed binder)
# chain: B1 chain with M15V, T18F, E31Q, Q34V
# B9: MA-BITI-E7 display phage (designed binder)
# chain: B1 chain with M15V, G16A, T18F, S19P
# B10: MUTT26A display phage (designed binder)
# chain: B1 chain with M15V, G16A, T18F, S19P, T26A, E31Q, Q34V
# B11: EPI-HNE-4 (designed binder)
# chain: EACNLPIVRGPCIAFFPRWAFDAVKGKCVLFPYGGCQGNGNKFYSEKECREYCGVP
# B12: MA-ITI-D1 display phage (other)
# chain: KEDSCQLGYSAGPCMGMTSRYFYNGTSMACETFQYGGCMGNGNNFVTEKDCLQTCRTVGA
# What was measured:
# [1] = target: T1, Human Neutrophil Elastase (human, UniProt P08246); test: display phage on hNE beads, extended pH fractionation
# Text: We characterized the binding properties to hNE-beads of MA-BITI and MA-BITI-E7 display phage using the extended pH fractionation procedure described in U.S. Pat. No. 5,223,409.
# [2] = target: T1, Human Neutrophil Elastase; test: display phage eluted from hNE beads, normalized to MA-EpiNE7 in a concurrent elution
# [3] = target: T1, Human Neutrophil Elastase; test: pH elution of display phage from hNE beads, extended protocol
# Text: (§1) Total pfu applied to the beads are in column two. The fractions of this input pfu recovered in each pH fraction of the abbreviated pH elution protocol (pH 7.0, pH 3.5, and pH 2.0) are in the next three columns. For data obtained using the extended pH elution protocol, the pH 3.5 listing represents the sum of the fractions of input recovered in the pH 6.0, pH 5.5, pH 5.0, pH 4.5, pH 4.0, and pH 3.5 elution samples. The pH 2.0 listing is the sum of the fractions of input obtained from the pH 3.0, pH 2.5, and pH 2.0 elution samples. The total fraction of input pfu obtained throughout the pH elution protocol is in the sixth column. The final column of the table lists the total fraction of input pfu recovered, normalized to the value obtained for MA-BITI-E7-141 phage.
# [4] = target: T1, Human Neutrophil Elastase; test: pH elution of display phage from hNE beads, abbreviated protocol
# Text: as §1
# [5] = target: T1, Human Neutrophil Elastase; test: estimated for the free domain from display phage binding to and elution from hNE beads
# [6] = target: T1, Human Neutrophil Elastase; test: pH elution of display phage from hNE beads
# [7] = target: T1, Human Neutrophil Elastase; test: enzyme inhibition assay
# Description: (§2) Inhibition constants for the proteins reacting with hNE (Kᵢ) were determined using RT measurements of hydrolysis of a fluorogenic substrate (N-methoxysuccinyl-Ala-Ala-Pro-Val-7-amino-4-methylcoumarin, Sigma M-9771) by hNE. […] The reactions were incubated at RT for 30 minutes. At the end of the incubation period, the fluorogenic substrate was added at a concentration of 25 μM and the time course for increase in fluorescence at 470 nm (excitation at 380 nm) due to enzymatic substrate cleavage was recorded using a spectrofluorimeter (Perkin-Elmer 650-15) and strip chart recorder. […] Kᵢ is related to Kₐₚₚₐᵣₑₙₜ by Kᵢ=Kₐₚₚₐᵣₑₙₜ×(1/(1+(S₀/Kₘ))). The correction is small compared to the possible errors in Kₐₚₚₐᵣₑₙₜ. Rates of enzymatic substrate cleavage were determined from the linear slopes of the recorded increases in fluorescence.
# (§3) We recorded data used to determine Kᵢ for EPI-HNE-2 and EPI-HNE-3 reacting with hNE. Data obtained as described above are recorded as percent residual activity plotted as a function of added inhibitor. […] From the data, Kᵢ values for EPI-HNE-2 and for EPI-HNE-3 reacting with hNE at RT were calculated to be 4.8 pM and 6.2 pM, respectively.
# [8] = target: T1, Human Neutrophil Elastase; test: calculated by the filing from koff = KD × kon
# Text: […] […] B. Specificity.
# [9] = target: Human Pancreatic Chymotrypsin (human, UniProt P17538); test: enzyme inhibition assay; said to be probably not specific
# [10] = target: T1, Human Neutrophil Elastase; test: progressive inhibition of hNE substrate hydrolysis after addition of inhibitor
# Description: The kinetic on-rates for the inhibitors reacting with hNE (kₒₙ) were determined from measurements of progressive inhibition of substrate hydrolytic activity by hNE following addition of inhibitor. For these experiments, a known concentration of inhibitor was added to a solution of hNE (0.847 nM) and substrate (25 μM) in 2 ml of reaction buffer in a plastic fluorescence cuvette. The change in fluorescence was recorded continuously following addition of the inhibitor. […] The enzymatic rate at selected times following addition of the inhibitor was determined from the slope of the tangent to the fluorescence time course at that time.
# The kinetic constant kₒₙ for EPI-HNE-2 reacting with hNE was determined as follows. EPI-HNE-2 at 1.3 nM was added to buffer containing 0.867 nM hNE (I:E=1.5:1) at time 0.
# [11] = target: T1, Human Neutrophil Elastase; test: inhibition of hNE hydrolysis of a fluorogenic substrate, [hNE] = 8.47 × 10^-10 molar
# Description: as §2, §3
# Human Serum Plasmin = Human Serum Plasmin (human, UniProt P00747); test: enzyme inhibition assay; limit on the assumption of less than 10% inhibition at the highest concentration tested
# Human Serum Kallikrein = Human Serum Kallikrein (human, UniProt P03952); test: as above
# Human Serum Thrombin = Human Serum Thrombin (human, UniProt P00734); test: as above
# Human Urine Urokinase = Human Urine Urokinase (human, UniProt P00749); test: as above
# Human Plasma Factor Xa = Human Plasma Factor Xa (human, UniProt P00742); test: as above
# [12] = target: T1, Human Neutrophil Elastase; test: abbreviated fractionation of display phage on hNE beads
# Description: To test if ITI-D1E7-display phage bind hNE beads, pH elution profiles were measured. Aliquots of EpiNE-7, MA-ITI-D1, and MA-ITI-D1E7 display phage were incubated with hNE beads for three hours at room temperature (RT). The beads were washed and phage were eluted as described in U.S. Pat. No. 5,223,409, except that only three pH elutions were performed.
binder,measurement,setting,value
B1,"SUM, fraction of input from all pH elution fractions",[1],3.9e-05 fraction of input
same,"SUM, total pfu from all pH elution fractions",[1],800000 pfu
same,pfu eluted at pH 2.0,[1],7700 pfu
same,pfu eluted at pH 2.5,[1],22000 pfu
same,pfu eluted at pH 3.0,[1],22000 pfu
same,pfu eluted at pH 3.5,[1],86000 pfu
same,pfu eluted at pH 4.0,[1],31000 pfu
same,pfu eluted at pH 4.5,[1],44000 pfu
same,pfu eluted at pH 5.0,[1],96000 pfu
same,pfu eluted at pH 6.0,[1],250000 pfu
same,pfu eluted at pH 7.0,[1],240000 pfu
same,pfu/Input eluted at pH 2.0,[1],3.8e-07 fraction of input
same,pfu/Input eluted at pH 2.5,[1],1.1e-06 fraction of input
same,pfu/Input eluted at pH 3.0,[1],1.1e-06 fraction of input
same,pfu/Input eluted at pH 3.5,[1],4.3e-06 fraction of input
same,pfu/Input eluted at pH 4.0,[1],1.6e-06 fraction of input
same,pfu/Input eluted at pH 4.5,[1],2.2e-06 fraction of input
same,pfu/Input eluted at pH 5.0,[1],4.8e-06 fraction of input
same,pfu/Input eluted at pH 6.0,[1],1.2e-05 fraction of input
same,pfu/Input eluted at pH 7.0,[1],1.2e-05 fraction of input
same,Normalized fraction of input (relative to recovered MA-EpiNE7),[2],0.018 ratio
B2,Fraction of Input recovered at pH2.0,[3],6.4e-05 fraction of input
same,Fraction of Input recovered at pH3.5,[3],0.0004 fraction of input
same,Fraction of Input recovered at pH7.0,[3],7.2e-05 fraction of input
same,Recovery Relative to BITI-E7-141,[3],0.21 ratio
same,"Recovery, Total fraction of input",[3],0.00054 fraction of input
B3,"fold increase in total fraction of input eluted, relative to parental MA-BITI-E7",[1],10 fold
same,Fraction of Input recovered at pH2.0,[3],0.00032 fraction of input
same,Fraction of Input recovered at pH3.5,[3],0.0021 fraction of input
same,Fraction of Input recovered at pH7.0,[3],0.00021 fraction of input
same,Recovery Relative to BITI-E7-141,[3],1 ratio
same,"Recovery, Total fraction of input",[3],0.0026 fraction of input
same,Fraction of Input recovered at pH2.0,[4],0.00054 fraction of input
same,Fraction of Input recovered at pH3.5,[4],0.0018 fraction of input
same,Fraction of Input recovered at pH7.0,[4],0.00022 fraction of input
same,Recovery Relative to BITI-E7-141,[4],1 ratio
same,"Recovery, Total fraction of input",[4],0.0026 fraction of input
same,Estimated KD,[5],< 0.01 nM
B4,fold reduction of binding against parental MA-BITI-E7-141,[6],≥ 10 fold
same,Fraction of Input recovered at pH2.0,[3],3.5e-05 fraction of input
same,Fraction of Input recovered at pH3.5,[3],0.00023 fraction of input
same,Fraction of Input recovered at pH7.0,[3],2.4e-05 fraction of input
same,Recovery Relative to BITI-E7-141,[3],0.11 ratio
same,"Recovery, Total fraction of input",[3],0.00029 fraction of input
B5,fold reduction of binding against parental MA-BITI-E7-141,[6],≥ 10 fold
same,Fraction of Input recovered at pH2.0,[4],4.5e-05 fraction of input
same,Fraction of Input recovered at pH3.5,[4],0.00021 fraction of input
same,Fraction of Input recovered at pH7.0,[4],5.7e-05 fraction of input
same,Recovery Relative to BITI-E7-141,[4],0.12 ratio
same,"Recovery, Total fraction of input",[4],0.00031 fraction of input
B6,Fraction of Input recovered at pH2.0,[4],0.00053 fraction of input
same,Fraction of Input recovered at pH3.5,[4],0.0016 fraction of input
same,Fraction of Input recovered at pH7.0,[4],0.00012 fraction of input
same,Recovery Relative to BITI-E7-141,[4],0.85 ratio
same,"Recovery, Total fraction of input",[4],0.0022 fraction of input
same,Estimated KD,[5],< 0.01 nM
B7,Fraction of Input recovered at pH2.0,[4],0.00012 fraction of input
same,Fraction of Input recovered at pH3.5,[4],0.00092 fraction of input
same,Fraction of Input recovered at pH7.0,[4],0.00018 fraction of input
same,Recovery Relative to BITI-E7-141,[4],0.46 ratio
same,"Recovery, Total fraction of input",[4],0.0012 fraction of input
B8,Fraction of Input recovered at pH2.0,[3],8.4e-05 fraction of input
same,Fraction of Input recovered at pH3.5,[3],0.00099 fraction of input
same,Fraction of Input recovered at pH7.0,[3],8.2e-05 fraction of input
same,Recovery Relative to BITI-E7-141,[3],0.46 ratio
same,"Recovery, Total fraction of input",[3],0.0012 fraction of input
same,Estimated KD,[5],< 0.01 nM
B9,"SUM, fraction of input from all pH elution fractions",[1],0.00029 fraction of input
same,"SUM, total pfu from all pH elution fractions",[1],1.8e+06 pfu
same,pfu eluted at pH 2.0,[1],8700 pfu
same,pfu eluted at pH 2.5,[1],23000 pfu
same,pfu eluted at pH 3.0,[1],89000 pfu
same,pfu eluted at pH 3.5,[1],90000 pfu
same,pfu eluted at pH 4.0,[1],240000 pfu
same,pfu eluted at pH 4.5,[1],380000 pfu
same,pfu eluted at pH 5.0,[1],370000 pfu
same,pfu eluted at pH 6.0,[1],280000 pfu
same,pfu eluted at pH 7.0,[1],280000 pfu
same,pfu/Input eluted at pH 2.0,[1],1.4e-06 fraction of input
same,pfu/Input eluted at pH 2.5,[1],3.8e-06 fraction of input
same,pfu/Input eluted at pH 3.0,[1],1.5e-05 fraction of input
same,pfu/Input eluted at pH 3.5,[1],1.5e-05 fraction of input
same,pfu/Input eluted at pH 4.0,[1],4e-05 fraction of input
same,pfu/Input eluted at pH 4.5,[1],6.3e-05 fraction of input
same,pfu/Input eluted at pH 5.0,[1],6.2e-05 fraction of input
same,pfu/Input eluted at pH 6.0,[1],4.7e-05 fraction of input
same,pfu/Input eluted at pH 7.0,[1],4.7e-05 fraction of input
same,Normalized fraction of input (relative to recovered MA-EpiNE7),[2],0.13 ratio
B10,Fraction of Input recovered at pH2.0,[3],0.00033 fraction of input
same,Fraction of Input recovered at pH3.5,[3],0.0019 fraction of input
same,Fraction of Input recovered at pH7.0,[3],0.00025 fraction of input
same,Recovery Relative to BITI-E7-141,[3],0.96 ratio
same,"Recovery, Total fraction of input",[3],0.0025 fraction of input
same,Estimated KD,[5],< 0.01 nM
B11,Ki,[7],0.005 nM
same,koff,[8],4.9e-05 s⁻¹
same,Ki,[9],~10000 nM
same,kon,[10],1.06e+07 M⁻¹ s⁻¹
same,Kd,[11],0.0046 nM
same,Ki,Human Serum Plasmin,> 90000 nM
same,Ki,Human Serum Kallikrein,> 90000 nM
same,Ki,Human Serum Thrombin,> 90000 nM
same,Ki,Human Urine Urokinase,> 90000 nM
same,Ki,Human Plasma Factor Xa,> 90000 nM
B12,"SUM, total fraction of input from all pH elution fractions",[12],1.4e-05 fraction of input
same,fraction of input eluted at pH 2.0,[12],1e-06 fraction of input
same,fraction of input eluted at pH 3.5,[12],3e-06 fraction of input
same,fraction of input eluted at pH 7.0,[12],1e-05 fraction of input
same,fraction of input in Wash,[12],1e-05 fraction of input
same,Normalized fraction of input (relative to recovered MA-EpiNE7),[2],0.0067 ratio
